The values below come from PMC8449060, “A fully reversible 25-hydroxy steroid kinase involved in oxygen-independent cholesterol side-chain oxidation” (The Journal of Biological Chemistry, 2021).

For orientation: Km means the concentration of substrate that gives half-maximal velocity.

What all share (assay): purified protein
The test system of series [1] is Nc1ncnc2c1ncn2[C@@H]1O[C@H](COP(=O)(O)OP(=O)(O)OP(=O)(O)O)[C@@H](O)[C@H]1O. Conditions: forward direction, 1 mM 25-OH-CDO, 10 mM MgCl2, 9% (w/v) HPCD, 50 mM Tris/HCl pH 7.8, 30 °C.
Series [2] has as its system Nc1ncnc2c1ncn2[C@@H]1O[C@H](COP(=O)(O)OP(=O)(O)O)[C@@H](O)[C@H]1O. The note with it: reverse direction, 1 mM 25-phospho-CDO, 10 mM MgCl2, 9% (w/v) HPCD, 50 mM Tris/HCl pH 7.8, 30 °C.
Series [3] relates to C[C@H](CCCC(C)(C)O)[C@H]1CC[C@H]2[C@@H]3CCC4=CC(=O)C=C[C@]4(C)[C@H]3CC[C@]12C. The note with it: forward direction, 5 mM ATP, 10 mM MgCl2, 9% (w/v) HPCD, 50 mM Tris/HCl pH 7.8, 30 °C.
The test system of series [4] is C[C@H](CCCC(C)(C)OP(=O)(O)O)[C@H]1CC[C@H]2[C@@H]3CCC4=CC(=O)C=C[C@]4(C)[C@H]3CC[C@]12C. The note with it: reverse direction, 5 mM ADP, 10 mM MgCl2, 9% (w/v) HPCD, 50 mM Tris/HCl pH 7.8, 30 °C, apparent, tested only up to 4 mM, no saturation.

Take “25-HSK (25-hydroxy-steroid kinase) (Sterolibacterium denitrificans)”: the Km in series [1] was 800 ± 50 µM; in series [2], 35 ± 3 µM; in series [3] it was 300 ± 10 µM; in series [4], 8000 ± 700 µM.
